Measured values taken from publication PMC2289895 (The Journal of Cell Biology, 1991).

Target: the molecule itself
Test: SEC + co-IP

B1: NH2 epitope-tagged SIS1 (amino-terminal-tagged SIS1 protein) (natural protein)
chain: MVKETKLYDLLGVSPSANEQELKKGYRKAALKYHPDKPTGDTEKFKEISEAFEILNDPQKREIYDQYGLEAARSGGPSFGPGGPGGAGGAGGFPGGAGGFSGGHAFSNEDAFNIFSQFFGGSSPFGGADDSGFSFSSYPSGGGAGMGGMPGGMGGMHGGMGGMPGGFRSASSSPTYPEEETVQVNLPVSLEDLFVGKKKSFKIGRKGPHGASEKTQIDIQLKPGWKAGTKITYKNQGDYNPQTGRRKTLQFVIQEKSHPNFKRDGDDLIYTLPLSFKESLLGFSKTIQTIDGRTLPLSRVQPVQPSQTSTYPGQGMPTPKNPSQRGNLIVKYKVDYPISLNDAQKRAIDENF
stoichiometry N: 2
